This note sets out measurements from article PMC11748629, “Unidirectional MCM translocation away from ORC drives origin licensing” (Nature Communications, 2025).

One assay has as its target T1, Mcm4 (Saccharomyces cerevisiae, UniProt P30665 1-933).
T1 construct: Mcm4, S. cerevisiae; Subunit of m4 and m7, written alone for the contacts seen in the structures; also called Mcm4 subunit of MCM; source: S. cerevisiae strains yGC216 and yGC226, purified as a subunit of MCM-Cdt1
T1 sequence: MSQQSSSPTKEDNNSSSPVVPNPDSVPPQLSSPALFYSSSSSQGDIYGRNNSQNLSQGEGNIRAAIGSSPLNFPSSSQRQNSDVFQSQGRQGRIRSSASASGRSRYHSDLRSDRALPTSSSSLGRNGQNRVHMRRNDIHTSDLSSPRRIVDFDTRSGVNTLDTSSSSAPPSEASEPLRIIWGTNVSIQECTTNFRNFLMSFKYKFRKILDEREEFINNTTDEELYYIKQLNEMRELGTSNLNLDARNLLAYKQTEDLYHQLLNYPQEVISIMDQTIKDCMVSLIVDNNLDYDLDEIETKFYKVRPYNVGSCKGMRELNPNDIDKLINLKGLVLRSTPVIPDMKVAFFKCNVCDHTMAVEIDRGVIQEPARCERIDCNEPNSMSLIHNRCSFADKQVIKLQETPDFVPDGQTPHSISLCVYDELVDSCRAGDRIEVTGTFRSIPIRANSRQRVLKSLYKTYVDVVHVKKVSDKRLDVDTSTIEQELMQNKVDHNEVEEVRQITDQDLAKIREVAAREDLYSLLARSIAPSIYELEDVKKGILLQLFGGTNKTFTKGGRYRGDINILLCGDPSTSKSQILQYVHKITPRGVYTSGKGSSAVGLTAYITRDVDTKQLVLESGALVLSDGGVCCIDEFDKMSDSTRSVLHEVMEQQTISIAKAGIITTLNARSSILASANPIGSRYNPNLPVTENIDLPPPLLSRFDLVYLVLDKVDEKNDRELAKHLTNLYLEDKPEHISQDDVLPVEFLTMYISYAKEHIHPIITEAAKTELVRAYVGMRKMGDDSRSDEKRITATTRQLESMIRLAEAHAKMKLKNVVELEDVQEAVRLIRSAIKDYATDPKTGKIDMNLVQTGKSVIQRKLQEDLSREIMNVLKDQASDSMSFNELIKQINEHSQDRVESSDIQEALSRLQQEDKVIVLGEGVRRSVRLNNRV
Description: cryo-EM structure; OC1M^Mcm5RA: 30 nM MH-ARS1-MH DNA, 60 nM ORC, 90 nM Cdc6, 60 nM MCM-Cdt1 (Mcm5 R549A), 2 mM ATP; same buffer; 30 °C, 30 min; conformer 1 at 3.7 Å, conformer 2 at 3.4 Å (Orc1 ATPase domain seen only in conformer 1). The note with it: both partners purified.

For a further assay, the target named is T2, Orc1 (Saccharomyces cerevisiae, UniProt P54784 1-914).
T2 construct: Orc1, S. cerevisiae; Subunit of m1, written alone for the contacts seen in the structures; also called Orc1 subunit of ORC; source: S. cerevisiae strain ySD-ORC, purified as a subunit of ORC
T2 sequence: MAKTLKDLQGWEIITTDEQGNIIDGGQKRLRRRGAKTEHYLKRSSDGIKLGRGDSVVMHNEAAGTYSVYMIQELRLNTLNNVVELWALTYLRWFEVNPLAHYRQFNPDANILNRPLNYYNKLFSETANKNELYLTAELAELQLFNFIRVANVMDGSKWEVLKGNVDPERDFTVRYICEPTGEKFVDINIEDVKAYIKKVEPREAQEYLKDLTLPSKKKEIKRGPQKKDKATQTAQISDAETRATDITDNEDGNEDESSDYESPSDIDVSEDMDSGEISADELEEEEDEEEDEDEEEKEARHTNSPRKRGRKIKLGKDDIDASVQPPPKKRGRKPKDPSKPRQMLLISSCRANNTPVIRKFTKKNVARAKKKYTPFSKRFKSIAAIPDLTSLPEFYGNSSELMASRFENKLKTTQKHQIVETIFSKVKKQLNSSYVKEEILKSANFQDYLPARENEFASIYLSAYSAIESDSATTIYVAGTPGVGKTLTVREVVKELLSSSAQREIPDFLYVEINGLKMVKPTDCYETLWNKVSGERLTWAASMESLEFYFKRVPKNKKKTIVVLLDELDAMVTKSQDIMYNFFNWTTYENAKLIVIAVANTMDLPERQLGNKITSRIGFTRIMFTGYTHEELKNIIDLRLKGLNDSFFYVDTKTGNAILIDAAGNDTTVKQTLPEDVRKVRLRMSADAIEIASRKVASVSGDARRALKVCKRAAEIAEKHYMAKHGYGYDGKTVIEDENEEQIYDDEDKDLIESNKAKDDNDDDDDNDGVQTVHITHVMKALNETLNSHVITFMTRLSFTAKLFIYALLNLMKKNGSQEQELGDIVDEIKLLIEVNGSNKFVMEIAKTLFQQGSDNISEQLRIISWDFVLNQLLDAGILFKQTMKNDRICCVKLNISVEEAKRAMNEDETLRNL
Description: cryo-EM structure; OCCM^Mcm2RA: 30 nM MH-ARS1-MH DNA, 60 nM ORC, 90 nM Cdc6, 60 nM MCM-Cdt1 (Mcm2 R676A), 3 mM ATP; 25 mM HEPES pH 7.6, 100 mM potassium chloride, 10 mM magnesium acetate, 1 mM DTT; 30 °C, 30 min; 3.3 Å consensus, 3.2 Å local refinements. The settings on record: both partners purified.

B1: Mcm7 (natural protein, Saccharomyces cerevisiae)
chain: MSAALPSIQLPVDYNNLFNEITDFLVTFKQDTLSSDATRNENEDENLDAENIEQHLLEKGPKYMAMLQKVANRELNSVIIDLDDILQYQNEKFLQGTQADDLVSAIQQNANHFTELFCRAIDNNMPLPTKEIDYKDDVLDVILNQRRLRNERMLSDRTNEIRSENLMDTTMDPPSSMNDALREVVEDETELFPPNLTRRYFLYFKPLSQNCARRYRKKAISSKPLSVRQIKGDFLGQLITVRGIITRVSDVKPAVEVIAYTCDQCGYEVFQEVNSRTFTPLSECTSEECSQNQTKGQLFMSTRASKFSAFQECKIQELSQQVPVGHIPRSLNIHVNGTLVRSLSPGDIVDVTGIFLPAPYTGFKALKAGLLTETYLEAQFVRQHKKKFASFSLTSDVEERVMELITSGDVYNRLAKSIAPEIYGNLDVKKALLLLLVGGVDKRVGDGMKIRGDINVCLMGDPGVAKSQLLKAICKISPRGVYTTGKGSSGVGLTAAVMKDPVTDEMILEGGALVLADNGICCIDEFDKMDESDRTAIHEVMEQQTISISKAGINTTLNARTSILAAANPLYGRYNPRLSPLDNINLPAALLSRFDILFLMLDIPSRDDDEKLAEHVTYVHMHNKQPDLDFTPVEPSKMREYIAYAKTKRPVMSEAVNDYVVQAYIRLRQDSKREMDSKFSFGQATPRTLLGIIRLSQALAKLRLADMVDIDDVEEALRLVRVSKESLYQETNKSKEDESPTTKIFTIIKKMLQETGKNTLSYENIVKTVRLRGFTMLQLSNCIQEYSYLNVWHLINEGNTLKFVDDGTMDTDQEDSLVSTPKLAPQTTASANVSAQDSDIDLQDA
notes: Mcm7, S. cerevisiae; Subunit of m4 and m7, written alone for the contacts seen in the structures; also called Mcm7 subunit of MCM; source: S. cerevisiae strains yGC216 and yGC226, purified as a subunit of MCM-Cdt1
With B1, the binding result with Mcm4 and in the assay with Orc1 was “binds” throughout.
